For 17 molecules, EC50 and Kd results are on record in PMC10039853.

Assay [1] addresses hen egg lysozyme, P00698. Kind of assay: ELISA. Conditions: chain shown with the change;, read off a plot. (In general: In an ELISA, binding on a coated surface is turned into a signal by an enzyme label.)
Assay [2] has as its target hen egg lysozyme, P00698. As to the kind of experiment: SPR. Conditions: chain shown with the change;, read off a plot.

Chain of hen egg lysozyme, P00698 (P00698 19-147): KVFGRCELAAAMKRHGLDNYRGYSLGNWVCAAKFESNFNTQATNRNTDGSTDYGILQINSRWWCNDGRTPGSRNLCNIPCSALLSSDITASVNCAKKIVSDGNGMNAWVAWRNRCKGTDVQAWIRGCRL

B1: anti-lysozyme VHH D3-L11, wild type A79L (protein)
chain: DVQLVESGGGSVQAGGSLRLSCAASGSTDSIEYMTWFRQAPGKAREGVAALYTHTGNTYYTDSVKGRFTISQDKAKNMLYLRMDSVKSEDTAIYTCGATRKYVPVRFALDQSSYDYWGQGTQVTVSS
Usually EC50 stands for the midpoint of the concentration-response curve. One may read the Kd as a measure of binding affinity in units of concentration. Consider B1, for which, in assay [1] (parent: est. 0.92), the EC50 is 1.5 µg/mL. Further, the Kd in assay [2] (parent: est. 3.1e-12) is 0.0067 nM.

B2: anti-lysozyme VHH D3-L11, wild type A79R (protein)
chain: DVQLVESGGGSVQAGGSLRLSCAASGSTDSIEYMTWFRQAPGKAREGVAALYTHTGNTYYTDSVKGRFTISQDKAKNMRYLRMDSVKSEDTAIYTCGATRKYVPVRFALDQSSYDYWGQGTQVTVSS
Regarding B2, the concentration for a half-maximal effect (EC50) in assay [1] (parent: est. 0.92) is 31 µg/mL. The Kd in assay [2] (parent: est. 3.1e-12) worked out at 0.026 nM.

B3: anti-lysozyme VHH D3-L11, wild type A79V (protein)
chain: DVQLVESGGGSVQAGGSLRLSCAASGSTDSIEYMTWFRQAPGKAREGVAALYTHTGNTYYTDSVKGRFTISQDKAKNMVYLRMDSVKSEDTAIYTCGATRKYVPVRFALDQSSYDYWGQGTQVTVSS
For B3, the concentration giving a half-maximal response (EC50) in assay [1] (parent: est. 0.92) is 2.5 µg/mL. The dissociation constant (Kd) in assay [2] (parent: est. 3.1e-12) amounted to 0.0036 nM.

B4: anti-lysozyme VHH D3-L11, wild type A79H (protein)
chain: DVQLVESGGGSVQAGGSLRLSCAASGSTDSIEYMTWFRQAPGKAREGVAALYTHTGNTYYTDSVKGRFTISQDKAKNMHYLRMDSVKSEDTAIYTCGATRKYVPVRFALDQSSYDYWGQGTQVTVSS
Consider B4, for which the EC50 in assay [1] (parent: est. 0.92) came to 120 µg/mL. Also, the Kd in assay [2] (parent: est. 3.1e-12) amounted to 0.023 nM.

B5: anti-lysozyme VHH D3-L11, wild type A79F (protein)
chain: DVQLVESGGGSVQAGGSLRLSCAASGSTDSIEYMTWFRQAPGKAREGVAALYTHTGNTYYTDSVKGRFTISQDKAKNMFYLRMDSVKSEDTAIYTCGATRKYVPVRFALDQSSYDYWGQGTQVTVSS
B5: the Kd in assay [2] (parent: est. 3.1e-12) and in assay [2] (parent: est. 3.3 pM) was 0.012 nM throughout.

B6: anti-lysozyme VHH D3-L11, wild type A79W (protein)
chain: DVQLVESGGGSVQAGGSLRLSCAASGSTDSIEYMTWFRQAPGKAREGVAALYTHTGNTYYTDSVKGRFTISQDKAKNMWYLRMDSVKSEDTAIYTCGATRKYVPVRFALDQSSYDYWGQGTQVTVSS
For the molecule B6, the concentration giving a half-maximal response (EC50) in assay [1] (parent: est. 0.92) amounted to 1900 µg/mL. In addition, the Kd in assay [2] (parent: est. 3.1e-12) came out at 0.015 nM.

B7: anti-lysozyme VHH D3-L11, wild type A79C (protein)
chain: DVQLVESGGGSVQAGGSLRLSCAASGSTDSIEYMTWFRQAPGKAREGVAALYTHTGNTYYTDSVKGRFTISQDKAKNMCYLRMDSVKSEDTAIYTCGATRKYVPVRFALDQSSYDYWGQGTQVTVSS
Consider B7, for which the concentration for a half-maximal effect (EC50) in assay [1] (parent: est. 0.92) stood at 10 µg/mL. The Kd in assay [2] (parent: est. 3.1e-12) is 0.0037 nM.

B8: anti-lysozyme VHH D3-L11, wild type A79M (protein)
chain: DVQLVESGGGSVQAGGSLRLSCAASGSTDSIEYMTWFRQAPGKAREGVAALYTHTGNTYYTDSVKGRFTISQDKAKNMMYLRMDSVKSEDTAIYTCGATRKYVPVRFALDQSSYDYWGQGTQVTVSS
In the case of B8, the EC50 in assay [1] (parent: est. 0.92) is 4.2 µg/mL. Further, the Kd in assay [2] (parent: est. 3.1e-12) worked out at 0.0068 nM.

B9: anti-lysozyme VHH D3-L11, wild type A24L (protein)
chain: DVQLVESGGGSVQAGGSLRLSCALSGSTDSIEYMTWFRQAPGKAREGVAALYTHTGNTYYTDSVKGRFTISQDKAKNMAYLRMDSVKSEDTAIYTCGATRKYVPVRFALDQSSYDYWGQGTQVTVSS
Turning to B9, the Kd in assay [2] (parent: est. 3.3 pM) amounted to 0.045 nM.

B10: anti-lysozyme VHH D3-L11, wild type A79I (protein)
chain: DVQLVESGGGSVQAGGSLRLSCAASGSTDSIEYMTWFRQAPGKAREGVAALYTHTGNTYYTDSVKGRFTISQDKAKNMIYLRMDSVKSEDTAIYTCGATRKYVPVRFALDQSSYDYWGQGTQVTVSS
Turning to B10, in assay [1] (parent: est. 0.92), the EC50 was 0.92 µg/mL. The Kd in assay [2] (parent: est. 3.1e-12) came to 0.0049 nM.

B11: anti-lysozyme VHH D3-L11, wild type G97F (protein)
chain: DVQLVESGGGSVQAGGSLRLSCAASGSTDSIEYMTWFRQAPGKAREGVAALYTHTGNTYYTDSVKGRFTISQDKAKNMAYLRMDSVKSEDTAIYTCFATRKYVPVRFALDQSSYDYWGQGTQVTVSS
For B11, the EC50 in assay [1] (parent: est. 0.90) stood at 3.2 µg/mL. In addition, the dissociation constant (Kd) in assay [2] (parent: est. 3.3 pM) amounted to 0.0062 nM.

B12: anti-lysozyme VHH D3-L11, wild type A79S (protein)
chain: DVQLVESGGGSVQAGGSLRLSCAASGSTDSIEYMTWFRQAPGKAREGVAALYTHTGNTYYTDSVKGRFTISQDKAKNMSYLRMDSVKSEDTAIYTCGATRKYVPVRFALDQSSYDYWGQGTQVTVSS
In the case of B12, in assay [1] (parent: est. 0.92), the EC50 is 7.6 µg/mL. Besides, in assay [2] (parent: est. 3.1e-12), the Kd came to 0.012 nM.

B13: anti-lysozyme VHH D3-L11, wild type A79Q (protein)
chain: DVQLVESGGGSVQAGGSLRLSCAASGSTDSIEYMTWFRQAPGKAREGVAALYTHTGNTYYTDSVKGRFTISQDKAKNMQYLRMDSVKSEDTAIYTCGATRKYVPVRFALDQSSYDYWGQGTQVTVSS
For B13, the half-maximal effective concentration (EC50) in assay [1] (parent: est. 0.92) is 9.5 µg/mL. In assay [2] (parent: est. 3.1e-12), the Kd is 0.0072 nM.

B14: anti-lysozyme VHH D3-L11, wild type G26I (protein)
chain: DVQLVESGGGSVQAGGSLRLSCAASISTDSIEYMTWFRQAPGKAREGVAALYTHTGNTYYTDSVKGRFTISQDKAKNMAYLRMDSVKSEDTAIYTCGATRKYVPVRFALDQSSYDYWGQGTQVTVSS
On to B14, for which the Kd in assay [2] (parent: est. 3.3 pM) worked out at 0.026 nM.

B15: anti-lysozyme VHH D3-L11, wild type A79T (protein)
chain: DVQLVESGGGSVQAGGSLRLSCAASGSTDSIEYMTWFRQAPGKAREGVAALYTHTGNTYYTDSVKGRFTISQDKAKNMTYLRMDSVKSEDTAIYTCGATRKYVPVRFALDQSSYDYWGQGTQVTVSS
For B15, the dissociation constant (Kd) in assay [2] (parent: est. 3.1e-12) turned out to be 0.013 nM.

B16: anti-lysozyme VHH D3-L11, wild type A79Y (protein)
chain: DVQLVESGGGSVQAGGSLRLSCAASGSTDSIEYMTWFRQAPGKAREGVAALYTHTGNTYYTDSVKGRFTISQDKAKNMYYLRMDSVKSEDTAIYTCGATRKYVPVRFALDQSSYDYWGQGTQVTVSS
Turning to B16, in assay [2] (parent: est. 3.1e-12), the Kd stood at 0.0055 nM.

B17: anti-lysozyme VHH D3-L11, wild type A79N (protein)
chain: DVQLVESGGGSVQAGGSLRLSCAASGSTDSIEYMTWFRQAPGKAREGVAALYTHTGNTYYTDSVKGRFTISQDKAKNMNYLRMDSVKSEDTAIYTCGATRKYVPVRFALDQSSYDYWGQGTQVTVSS
Regarding B17, in assay [1] (parent: est. 0.92), the EC50 is 6.7 µg/mL. Moreover, in assay [2] (parent: est. 3.1e-12), the Kd is 0.0081 nM.
